Experimental data: the nanobody polyreactivity screen of Harvey et al. (2022)

Assay: yeast display, Sf9 membrane polyspecificity reagent, FACS + sequencing; frameworks hold sequencing errors
In short: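 Galactose induction of a Saccharomyces cerevisiae BJ5465 synthetic nanobody display library ran 36–48 hours. The cells were then stained for 1 hour at 4 °C with 10% biotinylated, detergent-solubilized Sf9 membrane reagent, pulled down on streptavidin microbeads and FACS-sorted into low and high (top ~1%) gates on expression and reagent-binding fluorescence. Labels for polyreactivity follow the gate of origin.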

Row | Sequence | polyreactivity (PSR sort gate)
1 | QVQHVESGVGLVQPVGSLRLSCAASGSTIVSNAMGWERQAPGKERELVAAISTSGGTTDYPDSVKGRFTISRHNAKNTVYLQMNCLKPEDTAVYYCAARHYYVKHSYDYWGQGTQVTVSS | low polyreactivity
2 | QVQLVESGGGLVQAGGSLRLSCAASGFIFTRNAMGWYRQAPGKERELVAAITSSGGSTYYADSVKGRFTISRDNAKYTVYLQMNCLKPEDTAVYYFAADDIQTYGDDYWGQGTQVTVSS | high polyreactivity
3 | QVQLVESGGGLVQAGGSLRLSCAASGFTSRTYAMGWYRQAPGKERELVAAITFSGGSTYYADSVKGRFTISRDNAKNTVYLQMNSLKPEDTAVYYCARDGLWYNAIWEYDYWGQGTQVTVSS | high polyreactivity
4 | QVQLVESGGGLVQAGGSLRLSCAASGSIFKINTMGWYRQAPRQERELVAAISKRGGSTYYADSVKGRFTISRDNAKITVYLQMNSLKPDDTAVYYCAAREFYKYYYWGQVTQVTVSS | high polyreactivity
5 | QVQLVESGGGLVHAGGSLRLSCAASGFTFLRYVMGWYRQTPGKERELVAAISYSGGRTYYADSVKGRFTISRDNAKKTVYLQMNSLKPEDTAVYYCAAESFYPAGFRGYWGQGTQVTVSS | high polyreactivity
6 | QVQLVESGGGLVQAGGSLRLSCAASGRTFKKYALGWYRQAPGKEREVVAAITSRVRSTSYADSVKGRFTISRDNAKNTVYLQMNSLIPEDTAVYYCAARYSVGNGYGYWGQVTQVTVSS | high polyreactivity
7 | QVQLVESGGGLVQAGGSLRLSCAASGSIFYINAMGWYRQAPGKERELGAAITSDGSTYYADSVKGRFTISRDKAKHTVYLQMNSLKPEDTAVYYCAADLTSDQFLYYWYWFYSWGQGTQVTVSS | low polyreactivity
8 | QVQHVESGGGLVQAGGSLRLSCAASGSTFRFYDMGWYRQSPGKERELVATISSSGGTTYYADSVKGRFTISRDNAKNTVYLQMNSLKPEDTAVYYCNKYYGGRYRQYAYGYWGQGTQVTVSS | high polyreactivity
9 | QVQLVESGGGLVQAGGSLRLSCAASGRIFNGYAMGWYRQAPGKERELVAAISVSGGSTYYADSVKGRFTISRDNAKNTVYLQMNSLKPEDTAVYYCAARTSSYSFPYAYNYWGQGTQVTVSS | high polyreactivity
10 | QVQLVESGGGLVQAGGSLRLSCAASGSIFVYYAMGWYRQAPGKERELVAAINSSGGRTYYADSVKGRFTISRDNAKNTVYLQMNSLKPEETAVYYCAAVYRYWTSYNGRNYWGQGTQVTVSS | high polyreactivity
11 | QVQLVESGGGLVQAGGSLRLSCAASGRTFGQYALGGSRKAPGKERELVATITRTARTNYADSVKGRFTISRDNAKNTVYLQMNSLKPEDTAVYYCAKGWPAIYGTYDYCGQGTQVTVSS | high polyreactivity
12 | QVKLVESGGGLVQAGGSLRLSCDASGFIFSLYAMGWYRQEHGKERDLVAAISKRGGSTNYADSVKGRFTISRDNAKNTVYLQMNSLKTEDTAVYYCAKARPVFLYDHWGQGTQLTVSS | high polyreactivity
13 | QVQLVESGGGLVQAGGSLRLSCAASGFTIGDNAMGWSRQAPGKERELVAAITWSGGSTYYADSVKGRFTISRDNAKNTVYLQMNSLKPEDTAVYYCAADKLRELDYWGQGTEVTVSS | low polyreactivity
14 | QVQLVESGGGLVQAGGSLRLRCASSGSIFHRNAMGWYRQAPGKERELVATITSNGGSTYYADSVKGRFTISRDNAKNTVFLHMNRLKPEDTAVYFCARKYRSPISALLTGDYWGQGTEVTVSS | low polyreactivity
15 | QVQLVESGGGLVQAGGSLRLSCAAYGSTLTWNAMGWYRQAPGKERELVAAITGVGSTNYADSVKGRFTISRDNAKNTVYLQMNSLKPEDSAVYYCAAQGSGSTLYEYWGQGTQVTVSS | low polyreactivity
16 | QVQLLESGGGLVQAGGSLRLSCAASGSSFSHYTMGWYRQAPGKERELVAAINYGGASTYYADSVKGRFTISRDNAKNTVYLQMNSLKPEYTAVYYCAAANRPSEQDNYWGQGTQVTVSS | low polyreactivity
17 | QVQLVESGGGLVQAGGSLRLSCAASGFTFDFYALGWYRQAPGKERELVAAISKNDGTTYYADSVKGRFTISRDNAKNTVYLQMNSLKPEDTAVYYCNAGNNVVVDYDYWGQGTQVTVSS | low polyreactivity
18 | QVQLVESGGGLVQAGGSLRLSCAASGSILSKNAMGWYRQAPGKERELVAAITWSGGSTYYADSVKGRFTISRDNAKNTVYLQMNSLKPEDTAVYYCAADLDWSPHFGLPYDYWGQGTQVTVSS | low polyreactivity
19 | QVQLVESGGGLVQAGGSLRLSCAASGRTFWIYAMGWYRQAPGKEREFVAAISSSGGGTYYADSVKGRFTISRDNAKNTVYLQMNSLKPEDTAVYYCAADDGYSSNEFDYWGQGTQVTVSS | low polyreactivity
20 | QVQLVESGGGLVQAGGSLRLSCAASGSTFVTNAMGWYRQAPGKEREFVAAISNSSGSTYYADSVKGRFTISRDNAKNTVYLQMNSLKPEDTAVYYCIATPDDWLQEDYWGQGTQVTVSS | low polyreactivity
21 | QVQLVESGGGLVQAGGSLRLSCAAYGLIFGHYAMGWYRQEPGKERELVAAITTRGSSTYYADSVKGRFTISRDNAKNTVYLQMNSLKPEDTAVYYCNAKLVYGTTYKFDNWGQGTQVTVSS | high polyreactivity
22 | QVQLVESGGGLVQAGGSLRLSCAASGRIFYFNAMGWYRQAPGKERELVAAISWSGSRTFYADSVTGRFTISRDNAKNTVYLQMNSLKPEDTAVYYCAVRGYMWNAGNTIRRDYWGQGTQVTVSS | high polyreactivity

Row | Sequence | polyreactivity (PSR sort gate)
23 | QVQLVESGGGLVQAGGSLRLSCAASGIIIDYNAMGWYRQAPGKERELVAAISSRGGSTYYADSVKGRFTISRDNAKNPVYFQMNSLKPEDTAVYYCAGRPDHQRYDYWGQGSQVTVSS | low polyreactivity
24 | QVQLVESGGGLVQAGGSLRLSCAASRIIFDDNAMGWYRQAPGKEMELVAAISRRGGSTYYADSVKGRFTISRDNAKNTVYLQMNSLKPEDTAVYYCAATTRTSSLYNYWGQGTQVTVSS | high polyreactivity
25 | QVQLVESGGGLVQAGGSLRLSCAASGGTFLVNAMGWYRQSPGKEREWVATITARVASTYYADSVTGRFTISRDNAKNTVYLQMNTLKPEDTAVYYCAARKVWGYTYGYPYYYWGQATQVTVSS | high polyreactivity
26 | QVQLVESGGGLVQAGGSLRLSCAASGSTFLRYAMGWYRQAPGKERELVAAISSGTSTNYADSVKGRFTISRDNAKNTVYLQMNSLKPEDTAVYYCAAVYAWLFWYDSWGQGTQVTVSS | low polyreactivity
27 | QVQLVESGGGLVQAGGSLRLSCAASGFTFLHNAMGWYRQAPGKDRELVAAISYSGGSTYADSVKGRFTISRDNAKYTVYLQMNSLKPEDTADYYCNADYSSQDNFDYWGQGTQVTVSS | low polyreactivity
28 | QVQLVESGGGLVQAGGSLRLSCAASGRIFGVNARGWYRQAPGKERELVATITRGGNTNYADSVKGRFTISRDNAKNTVYLQMNSLKPEDTAVYYCNADRYRTFSRLPYGEYEYWGQGTQVTVSS | low polyreactivity
29 | QVQLVESGACLVQAGGSLRLSCAASGSIFGFYAMGWYRQAPGQERELVAGISYGDSSTYYADSVKGRFTISRDNAKNTVYLQMNSLKPEDTAVYYCAAGHRQKYNWGRYDYWGQGTQVTVSS | low polyreactivity
30 | QVQLVESGGGLVQAGGSLRLSCAASGRTFGVYVMGWYRQAPGKERELVAVITISGGSTYYADSVKGRFTISRDNAKNTVYLQMNSLKPEDTAVYYCAARTYYGYDYWGQGTQVTVSS | high polyreactivity
31 | QVQLVESGGGLVQAGGSLRLSCAASGFTFYRYAMGWYRQAPGKERELVAAITGGGSTYYADSVKGRFTISRDNAKNTVYLQMNSLKPEDTAVYYCNADIRAYTVLTGGYIYDYWGQGTQVTVSS | high polyreactivity
32 | QVQLVESGGGLVQAGGSLRLSCDASGSTFRGYAMGWYRQAPGKERDLVAAISRYGGSTYYADSVKGRFTISRDNAKTTVYIQMNSLKPEDTAGYYCNARSSKRSSRGYDYWGQGTQVTVSS | high polyreactivity
33 | QVQLVESGGGLVQAGGSLRLSCAASARIFVINAMGWYRQAPGKERELVADITWSGGSTYADSVKGRFTISRDNAKNTVYLQMYSLKPEDTAVYYCAAVTFVPRSTNGISLYDYWGQGTQVTVSS | high polyreactivity
34 | QVQLVESGGGLVQAGGSLRLSCADSGRIFGPYAMGWYRKAPGKERELVAAIRASSSTYYADSVKGRFTISRDNAKNTVYLQMNSLKPEDTAVYYCAADWYYGYAWKYGYWGQGTQVTVSS | low polyreactivity
35 | QVQLVESGGGLVQAGGSLRLSCAASGRTFAAYDMGWYRQAPGKERELVAAITSGGSTNYADSVKGRFTISRDNAKNTVYLQMNSLKPEDTAVYYCNARFRKWPQARYGVRYYYWGQGTQVTVSS | high polyreactivity
36 | QVQRVESAAGLVQAGGSLRLSCAASGSIFWFNSMGWSRPEPGKERELVATIRYSGCSTYYADSVKGRFTISRDNAKKTVYLLMNSLKPDDTAVYYSAAVYRYSRSGYEYWGQGTQVTVSS | high polyreactivity
37 | QVELVESGGGLVQAGGSLRLSCAASGFIFYRYTMGWYRQAPGKEREVVAAISRRGGSTYYADSVKGRFTISRDNAKNTVYLQLNSLKPEDTAGYYCAARLGGYPRQGRYDYWGQGTQVTVSS | high polyreactivity
38 | QVQLVESGGGLVQAGGSLRLSCAASGFIFNHYRMGWYRPAPGKEREFVAAISWSGGSTYYADSVKGRFTISRDNAKNTVYLQMNSLKPEDTAVYYCAASYNGLWHGDYDYWGQGTQVTVSS | low polyreactivity
39 | QVQLVESGGGLVQAGGSLRLSWAASGITFSRNAMGWYRQAPGKESELVATITSGGSTNYADSVKGRFTISRDHAKNTVYLQMNSLKPEDTAVYYCNAVWNNFISGRSYDYWGQGTQVTVSS | low polyreactivity
40 | QVQLVESGGGLVQAGGSLRLSCAASGLIFGGNAMGWYRQAPGKERELVAAITYRTGSTYYADSVKGRFTISRDNAKNTVYLQMNSLKPEDTAVYYCAAAVSLGYPVAFYYWGQGTQVTVSS | low polyreactivity
41 | QVQLLESRGGLVQAGGSLRLSCAASGSNFDVYDMGWYRQAPGKERELVACISWDGDRTYYADSVKGRFTISRDNAKNTVYLQMKSLKPEDTAVYYCAVDSASDTIYDYWGQGTQVTVSS | low polyreactivity
42 | QDQLVESGGGLVQAGGSLRLSCAASGFIFGLNAMGWYRQAPGKERELVASISRRCGSTYYAYSVKGRFTISRDNAKNTVYLQMNSLKPEDTAVYYCASDTLGGTSLGDYWGQGIQVTVSS | high polyreactivity
43 | QVQLVESGGGLVQAGGSLRLSCAASGSIFEWYAMGWYRQAPGKERELVADISSVGSTYYADSVKGRFTISRDNAKNTVYLQMNSLKPEDTAVYYCNTTYIIWYDSWGQGTQVTVSS | low polyreactivity
